Source: US20210041163A1 (Hoffmann-La Roche, published 2021)

Molecular target: T1, human neonatal Fc receptor (FcRn), FcRn beta-2-microglobulin complex (human, UniProt P55899 24-297; P61769 21-119)
T1 construct: also called human FcRn
Test: SPR-based binding assay, relative to the reference antibody

T1 sequence (P55899 24-297 limits assumed, chain 1 of 2): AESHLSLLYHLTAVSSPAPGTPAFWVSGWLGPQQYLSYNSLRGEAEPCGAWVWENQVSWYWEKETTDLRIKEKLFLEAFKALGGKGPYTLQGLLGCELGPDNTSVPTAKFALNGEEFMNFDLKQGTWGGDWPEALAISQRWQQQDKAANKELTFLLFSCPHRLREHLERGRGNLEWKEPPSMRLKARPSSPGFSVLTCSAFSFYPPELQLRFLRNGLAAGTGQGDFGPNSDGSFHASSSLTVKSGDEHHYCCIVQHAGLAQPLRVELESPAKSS
T1 sequence (P61769 21-119 limits assumed, chain 2 of 2): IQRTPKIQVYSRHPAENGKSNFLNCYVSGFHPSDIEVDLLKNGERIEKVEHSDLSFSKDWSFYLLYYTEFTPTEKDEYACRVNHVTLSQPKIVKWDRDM

B1: anti-digoxygenin antibody variant 7 (LC-G57R and LC-S60K) (antibody, human IgG1, kappa, name in Kabat numbering)
heavy: not shown
light: DIQMTQSPSSLSASVGDRVTITCRASQDIKNYLNWYQQKPGKAPKLLIYYSSTLLSRVPKRFSGSGSGTDFTLTISSLQPEDFATYYCQQSITLPPTFGGGTKVEIKRRTVAAPSVFIFPPSDEQLKSGTASVVCLLNNFYPREAKVQWKVDNALQSGNSQESVTEQDSKDSTYSLSSTLTLSKADYEKHKVYACEVTHQGLSSPVTKSFNRGEC
notes: Variant of m1
relative SPR binding: 161%
